{"source": "patent US20260207798A1", "about": "“CYCLIC PEPTIDES AS PET IMAGING AGENTS OF GRANZYME B” (priority 2022, published 2026)", "key": {"[1]": {"settings": "rhesus monkey, in vivo", "protocol": "Healthy non-human primate: A 3 h dynamic PET/CT scan was performed in a healthy male rhesus monkey to determine whole body biodistribution and clearance properties in an additional species. Approximately 6 mCi of ^18F-labeled anti-granzyme-B peptide was intravenously injected in the animal. Attenuation correction was performed using low-dose CT scan. Regions of interests (ROI) were manually drawn over tissues of interest to determine mean standardized uptake value (SUVmean)."}, "Human Granzyme B [2]": {"molecular_target": "Human Granzyme B (Homo sapiens, UniProt P10144)", "sequence (P10144 21-247)": "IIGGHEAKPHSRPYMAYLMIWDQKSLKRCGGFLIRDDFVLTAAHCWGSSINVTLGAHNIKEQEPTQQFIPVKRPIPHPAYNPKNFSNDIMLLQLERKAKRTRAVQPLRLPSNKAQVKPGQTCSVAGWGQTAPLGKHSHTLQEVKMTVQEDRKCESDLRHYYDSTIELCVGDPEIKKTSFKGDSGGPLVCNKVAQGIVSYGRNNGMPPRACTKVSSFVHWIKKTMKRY", "type": "in vivo", "parameters": "Ten million human peripheral blood mononuclear cell (PBMC) were engrafted in immunocompromised NOG (NOD/Shi-scid/IL-2Rγ) mice; endogenous in cells; host or cells: human PBMC (donor-derived) engrafted in NOG mice", "experimental": "Diseased model: Graft versus host disease (GvHD) model was selected to evaluate radiolabeled granzyme-B peptides due to presence of human granzyme-B after onset of disease. Ten million human peripheral blood mononuclear cell (PBMC) were engrafted in immunocompromised NOG (NOD/Shi-scid/IL-2Rγ) mice. Body weight was monitored routinely, once the mice started to lose weight (indication of onset of disease), PET/CT scans were performed. To determine target specificity, NOG mice without human PBMC were used as control. […] Mice were intravenously injected with approximately 150 uCi (35 Ci/mmol) of ^18F-labeled peptides and 45-minute whole body static PET/CT scans were performed 1 h after injection. Attenuation correction was performed using low-dose CT scan."}, "human Granzyme B [3]": {"molecular_target": "T1, human Granzyme B (human, UniProt P10144 21-247)", "T1 construct": "Captured on a Series S Streptavidin chip for SPR; also called hGranzyme B; GzmB", "T1 sequence (P10144 21-247 limits assumed)": "as the sequence (P10144 21-247) above", "assay": "SPR, Biacore 8k+, hGranzyme B captured on SA chip, single cycle kinetics, 1:1 model; Compound 42a, observed m/z 944.0", "experimental": "(§1) The kinetics of test peptide binding to human Granzyme B (hGranzyme B) was determined by SPR. All experiments were performed at 25° C. using the Biacore 8k+ instrument (Cytiva, Marlborough, MA). The Biacore 8k+ Insight Evaluation Software Version 3.0 was used to fit the data with a 1:1 binding model to determine the association rate constant kₐ (M⁻¹s⁻¹, where “M” ~equals molar and “s” ~equals seconds) and the dissociation rate constant kd (s⁻¹). These rate constants were used to calculate the equilibrium dissociation constant. KD (M)=kd/kₐ.\n(§2) To measure the binding kinetics of peptides of interest, surfaces were prepared by a capture method to a Series S Streptavidin (SA) chip using a 1×HBS-EP+ running buffer (Cytiva). hGranzyme B was diluted to 10 μg/mL in IX HBS-EP+ and flowed over spot 2 of each flow cell on the chip at a flow rate of 10 ul/min for 20 s to achieve a level of capture of ~1100 RU. […] Binding kinetics were measured using single cycle kinetics at 25° C. by injecting 5 concentrations with 3-fold serial dilutions of test peptides from 0.01 μM to 1 μM. […]\n(§3) Peptide dilution series included 2 zero concentration points (no compound) which were averaged and subtracted from the peptide concentration injection as DMSO control responses. […] Corrected response data were analyzed using the Biacore 8k+ Evaluation Software Version 3.0 according to the manufacturer. […]"}, "human Granzyme B [4]": {"molecular_target": "T1, human Granzyme B", "assay": "SPR, Biacore 8k+, hGranzyme B captured on SA chip, single cycle kinetics, 1:1 model; Compound 86a, observed m/z 912.9", "experimental": "as §1, §2, §3"}, "human Granzyme B [5]": {"molecular_target": "T1, human Granzyme B", "assay": "SPR, Biacore 8k+, hGranzyme B captured on SA chip, single cycle kinetics, 1:1 model; Compound 83a, observed m/z 913.2", "experimental": "as §1, §2, §3"}, "human Granzyme B [6]": {"molecular_target": "T1, human Granzyme B", "assay": "SPR, Biacore 8k+, hGranzyme B captured on SA chip, single cycle kinetics, 1:1 model; Compound 69a, observed m/z 912.6", "experimental": "as §1, §2, §3"}, "human Granzyme B [7]": {"molecular_target": "T1, human Granzyme B", "assay": "cell-based or functional assay"}, "human Granzyme B [8]": {"molecular_target": "T1, human Granzyme B", "assay": "SPR, Biacore 8k+, hGranzyme B captured on SA chip, single cycle kinetics, 1:1 model; Compound 25a, observed m/z 905.8", "experimental": "as §1, §2, §3"}, "human Granzyme B [9]": {"molecular_target": "T1, human Granzyme B", "assay": "SPR, Biacore 8k+, hGranzyme B captured on SA chip, single cycle kinetics, 1:1 model; Compound 62a, observed m/z 914.7", "experimental": "as §1, §2, §3"}, "human Granzyme B [10]": {"molecular_target": "T1, human Granzyme B", "assay": "SPR, Biacore 8k+, hGranzyme B captured on SA chip, single cycle kinetics, 1:1 model; Compound 38a, observed m/z 914.7", "experimental": "as §1, §2, §3"}, "human Granzyme B [11]": {"molecular_target": "T1, human Granzyme B", "assay": "SPR, Biacore 8k+, hGranzyme B captured on SA chip, single cycle kinetics, 1:1 model; Compound 40a, observed m/z 915.0", "experimental": "as §1, §2, §3"}, "human Granzyme B [12]": {"molecular_target": "T1, human Granzyme B", "assay": "SPR, Biacore 8k+, hGranzyme B captured on SA chip, single cycle kinetics, 1:1 model; Compound 41a, observed m/z 912.9", "experimental": "as §1, §2, §3"}, "human Granzyme B [13]": {"molecular_target": "T1, human Granzyme B", "assay": "SPR, Biacore 8k+, hGranzyme B captured on SA chip, single cycle kinetics, 1:1 model; Compound 66a, observed m/z 912.5", "experimental": "as §1, §2, §3"}}, "note": "Bridge positions count the residues as written; N and C are the ends. Square brackets hold non-standard residues; d marks the D form. Pro(trans-4-Ph) = O=C(O)[C@@H]1C[C@@H](c2ccccc2)CN1; Trp(7-Me) = Cc1cccc2c(C[C@H](N)C(=O)O)c[nH]c12; Pro(trans-4-F) = O=C(O)[C@@H]1C[C@@H](F)CN1; Pro(cis-4-F) = O=C(O)[C@@H]1C[C@H](F)CN1; Phe(4-F) = N[C@@H](Cc1ccc(F)cc1)C(=O)O; Phe(4-Me) = Cc1ccc(C[C@H](N)C(=O)O)cc1; Pro(4S-Me) = C[C@@H]1CN[C@H](C(=O)O)C1; Pro(4R-Me) = C[C@H]1CN[C@H](C(=O)O)C1"}
{"molecule": "*F.N.F.E.D.Q.S.A.D.T.W.Q.P.*C.G.G.K(^18F-AlF-NOTA-1).NH2 [Compound 11a]", "values": [{"measurement": "route of excretion", "setting": "[1]", "value": "primarily excreted through renal route"}, {"measurement": "blood pool clearance", "setting": "[1]; iv", "value": "rapid blood pool clearance"}, {"measurement": "uptake in kidneys", "setting": "[1]; iv", "value": "high uptake in kidneys within first 20 minutes of injection"}, {"measurement": "uptake (SUVmean) in lung, liver and bone, GvHD model versus NOG control", "setting": "Human Granzyme B [2]; 18F-labeled peptides, i.v., mice, static PET/CT 1 h after injection", "value": "significantly higher uptake in lung, liver, and bone in GvHD model than NOG control"}, {"measurement": "kidney and bladder uptake difference", "setting": "Human Granzyme B [2]; in vivo", "value": "No significant difference was observed between the kidney and bladder"}, {"measurement": "primary tissue of excretion", "setting": "Human Granzyme B [2]; in vivo", "value": "kidney was the primary tissue through which the peptide was excreted"}]}
{"molecule": "{CH2CO}-FNFEDQSPDTWQ[Pro(trans-4-Ph)]CG-NH2 (thioether N-14)", "note": "[Compound 42a]", "values": [{"measurement": "Kd", "setting": "human Granzyme B [3]", "value": 2.6, "unit": "nM"}]}
{"molecule": "{CH2CO}-FN[Phe(4-Me)]EDQSPDTWQPCG-NH2 (thioether N-14)", "note": "[Compound 86a]", "values": [{"measurement": "Kd", "setting": "human Granzyme B [4]", "value": 579, "unit": "nM"}]}
{"molecule": "{CH2CO}-FNFEDQS[Pro(4R-Me)]DTWQPCG-NH2 (thioether N-14)", "note": "[Compound 83a]", "values": [{"measurement": "Kd", "setting": "human Granzyme B [5]", "value": 48, "unit": "nM"}]}
{"molecule": "{CH2CO}-FNFEDQS[Pro(4S-Me)]DTWQPCG-NH2 (thioether N-14)", "note": "[Compound 69a]", "values": [{"measurement": "Kd", "setting": "human Granzyme B [6]", "value": 17.2, "unit": "nM"}]}
{"molecule": "{CH2CO}-FNFEDQSPDTWQPCG-NH2 (thioether N-14; SMILES C[C@@H](O)[C@@H]1NC(=O)[C@H](CC(=O)O)NC(=O)[C@@H]2CCCN2C(=O)[C@H](CO)NC(=O)[C@H](CCC(N)=O)NC(=O)[C@H](CC(=O)O)NC(=O)[C@H](CCC(=O)O)NC(=O)[C@H](Cc2ccccc2)NC(=O)[C@H](CC(N)=O)NC(=O)[C@H](Cc2ccccc2)NC(=O)CSC[C@@H](C(=O)NCC(N)=O)NC(=O)[C@@H]2CCCN2C(=O)[C@H](CCC(N)=O)NC(=O)[C@H](Cc2c[nH]c3ccccc23)NC1=O)", "note": "[Compound 25a]", "values": [{"measurement": "Human Granzyme B IC50 (fluorogenic substrate enzyme inhibition assay)", "setting": "human Granzyme B [7]", "value": "< 8", "unit": "nM"}, {"measurement": "Kd", "setting": "human Granzyme B [8]", "value": 2.8, "unit": "nM"}]}
{"molecule": "{CH2CO}-FNFEDQS[Pro(cis-4-F)]DTWQPCG-NH2 (thioether N-14)", "note": "[Compound 62a]", "values": [{"measurement": "Kd", "setting": "human Granzyme B [9]", "value": 6.7, "unit": "nM"}]}
{"molecule": "{CH2CO}-FNFEDQS[Pro(trans-4-F)]DTWQPCG-NH2 (thioether N-14; SMILES C[C@@H](O)[C@@H]1NC(=O)[C@H](CC(=O)O)NC(=O)[C@@H]2C[C@@H](F)CN2C(=O)[C@H](CO)NC(=O)[C@H](CCC(N)=O)NC(=O)[C@H](CC(=O)O)NC(=O)[C@H](CCC(=O)O)NC(=O)[C@H](Cc2ccccc2)NC(=O)[C@H](CC(N)=O)NC(=O)[C@H](Cc2ccccc2)NC(=O)CSC[C@@H](C(=O)NCC(N)=O)NC(=O)[C@@H]2CCCN2C(=O)[C@H](CCC(N)=O)NC(=O)[C@H](Cc2c[nH]c3ccccc23)NC1=O)", "note": "[Compound 38a]", "values": [{"measurement": "Human Granzyme B IC50 (fluorogenic substrate enzyme inhibition assay)", "setting": "human Granzyme B [7]", "value": "< 8", "unit": "nM"}, {"measurement": "Kd", "setting": "human Granzyme B [10]", "value": 0.7, "unit": "nM"}]}
{"molecule": "{CH2CO}-FN[Phe(4-F)]EDQSPDTWQPCG-NH2 (thioether N-14)", "note": "[Compound 40a]", "values": [{"measurement": "Kd", "setting": "human Granzyme B [11]", "value": 1.8, "unit": "nM"}]}
{"molecule": "{CH2CO}-FNFEDQSPDTWQ[Pro(4S-Me)]CG-NH2 (thioether N-14)", "note": "[Compound 41a]", "values": [{"measurement": "Kd", "setting": "human Granzyme B [12]", "value": 2.5, "unit": "nM"}]}
{"molecule": "{CH2CO}-FNFEDQSPDT[Trp(7-Me)]QPCG-NH2 (thioether N-14)", "note": "[Compound 66a]", "values": [{"measurement": "Kd", "setting": "human Granzyme B [13]", "value": 11.1, "unit": "nM"}]}
